The source of these data is PMC10774421 (Nature Communications, 2024).

In one assay the target is T1, HiSiaP (Haemophilus influenzae, UniProt P44542, S67C/S194C).
T1 construct: gene siaP
Particulars: 50 mM Tris pH 8, 50 mM NaCl; average of triplicates; CLOSED #1, no oxidant added.

In assay [1] the target is HiSiaQM OFS #2 (Y252C/M297C in HiSiaQM ΔCys) (Haemophilus influenzae) (UniProt P44543). As to the kind of experiment: single-molecule TIRF microscopy.
The target in the next assay is T2, wild-type HiSiaQM (Haemophilus influenzae, UniProt P44543).
T2 construct: also called wt HiSiaQM; HiSiaQM wt
As to the kind of experiment: single-molecule TIRF microscopy. Particulars: both partners purified.

One may read the Kd as the equilibrium constant for the complex coming apart. In the case of `CC(=O)N[C@H]1[C@H]([C@H](O)[C@H](O)CO)OC(O)(C(=O)O)C[C@@H]1O` (stereo partly drawn) [Neu5Ac], the affinity on HiSiaP, expressed as Kd, was 800 nM.
Consider “AF647-labeled wild-type HiSiaP (K254C) (from UniProt P44542 24-329) (natural protein)”, for which the change of the rate of interactions (against the wild-type proteins) in assay [1] was -50%.

B1: AF555-VHHQM3 (S85C) (VHH)
VHH: QLQLVETGGGLVQPGGSLRLSCTASRVTLDYHDIGWFRQAPGKEREGVSYISSSGGSTNYADSVKGRFTISRDNAKNTVYLQMNCLKPEDTAVYYCARSSAYGSSWLNPSRYDYWGQGTQVTVSS
In the case of B1, the binding result in the assay with wild-type HiSiaQM was “binds”.
